Laboratory results published in the Immune Epitope Database (IEDB).
Values belong to the sequence of their own block, whether it stands above or below them.

Columns and labels:
HLA-A*02:01 [1] = assay: IEDB peptide-MHC binding, purified MHC/competitive/fluorescence; ≥ and ≤ were set here for values at or beyond the usual limits of such assays
HLA-A*24:02 = assay: IEDB peptide-MHC binding, purified MHC/competitive/radioactivity; filed as Kd, often an IC50 or EC50 that approximates it; ≥ and ≤ were set here for values at or beyond the usual limits of such assays
HLA-A*01:01 = assay: as above
HLA-A*23:01 = assay: as above
HLA-A*26:01 = assay: as above
HLA-A*30:02 = assay: as above
HLA-A*29:02 = assay: as above
HLA-B*08:01 = assay: as above
HLA-B*07:02 = assay: IEDB peptide-MHC binding, purified MHC/direct/fluorescence; filed as Kd, often an IC50 or EC50 that approximates it; ≥ and ≤ were set here for values at or beyond the usual limits of such assays; details: source organism: SARS-CoV1
HLA-A*11:01 [2] = assay: as above; details: source organism: SARS-CoV1
HLA-A*32:01 = assay: IEDB peptide-MHC binding, purified MHC/competitive/radioactivity; filed as Kd, often an IC50 or EC50 that approximates it; ≥ and ≤ were set here for values at or beyond the usual limits of such assays
HLA-A*33:01 = assay: as above; details: source organism: SARS coronavirus Tor2
HLA-A*68:01 = assay: as above; details: source organism: SARS coronavirus Tor2
HLA-A*31:01 = assay: as above; details: source organism: SARS coronavirus Tor2
HLA-A*03:01 = assay: as above; details: source organism: SARS coronavirus Tor2
HLA-A*11:01 [3] = assay: as above; details: source organism: SARS coronavirus Tor2
HLA-A*69:01 = assay: IEDB peptide-MHC binding, purified MHC/direct/fluorescence; filed as Kd, often an IC50 or EC50 that approximates it; ≥ and ≤ were set here for values at or beyond the usual limits of such assays
HLA-A*02:01 [4] = assay: as above
[5] = source organism: Zaire ebolavirus
[6] = source organism: SARS coronavirus Tor2
[7] = source organism: Dengue virus 3 Martinique/1243/1999
[8] = source organism: Vaccinia virus WR
[9] = source organism: Lassa virus Josiah
[10] = source organism: Dengue virus 2 Jamaica/1409/1983
[11] = source organism: Lymphocytic choriomeningitis virus (strain Armstrong)
[12] = source organism: Mammarenavirus machupoense
[13] = source organism: Vibrio vulnificus YJ016
[14] = source organism: Camelpox virus M-96

Sequence: TGPCAGDFA
IC50 (HLA-A*02:01 [1]; [5]): ≥ 112000 nM

Sequence: CTFLLNKEMY
Kd (HLA-A*24:02; [6]): ≥ 70300 nM
Kd (HLA-A*01:01; [6]): 793 nM
Kd (HLA-A*23:01; [6]): ≥ 70000 nM
Kd (HLA-A*26:01; [6]): 9380 nM
Kd (HLA-A*30:02; [6]): 412 nM
Kd (HLA-A*29:02; [6]): 789 nM

Sequence: KLDISEATQ
IC50 (HLA-A*02:01 [1]; [5]): ≥ 96700 nM

Sequence: FLLRRWGGT
IC50 (HLA-A*02:01 [1]; source organism: Sudan ebolavirus): 2020 nM

Sequence: ETPHLMGWDY
Kd (HLA-A*24:02; [6]): ≥ 70300 nM
Kd (HLA-A*01:01; [6]): 301 nM
Kd (HLA-A*23:01; [6]): ≥ 70000 nM
Kd (HLA-A*26:01; [6]): 4.91 nM
Kd (HLA-A*30:02; [6]): 696 nM
Kd (HLA-A*29:02; [6]): 92.7 nM

Sequence: NCSSISIKL
IC50 (HLA-A*02:01 [1]; source organism: Vaccinia virus Copenhagen): ≥ 437000 nM

Sequence: LKKNKAIKIL
Kd (HLA-B*08:01; source organism: Dengue virus 4 Philippines/H241/1956): 11000 nM

Sequence: TLVGVVVST
IC50 (HLA-A*02:01 [1]; source organism: Vaccinia virus): 55400 nM

Sequence: TPSGTWLTY
Kd (HLA-A*24:02; [6]): ≥ 77600 nM
Kd (HLA-A*01:01; [6]): ≥ 79400 nM
Kd (HLA-A*23:01; [6]): ≥ 77800 nM
Kd (HLA-A*26:01; [6]): 18600 nM
Kd (HLA-A*30:02; [6]): 11800 nM
Kd (HLA-A*29:02; [6]): 55.5 nM
Kd (HLA-B*07:02): 7020 nM
Kd (HLA-A*11:01 [2]): 4570 nM

Sequence: EYPIIGDEL
Kd (HLA-A*24:02; [6]): 14100 nM
Kd (HLA-A*01:01; [6]): ≥ 78100 nM
Kd (HLA-A*23:01; [6]): 16200 nM
Kd (HLA-A*26:01; [6]): ≥ 77900 nM
Kd (HLA-A*30:02; [6]): 1330 nM
Kd (HLA-A*29:02; [6]): 176 nM

Sequence: VYSDVETPHL
Kd (HLA-A*24:02; [6]): 245 nM
Kd (HLA-A*01:01; [6]): 303 nM
Kd (HLA-A*23:01; [6]): 163 nM
Kd (HLA-A*26:01; [6]): ≥ 69700 nM
Kd (HLA-A*30:02; [6]): 16100 nM
Kd (HLA-A*29:02; [6]): 589 nM

Sequence: TTTIKPVSY
Kd (HLA-A*24:02; [6]): ≥ 77600 nM
Kd (HLA-A*01:01; [6]): 286 nM
Kd (HLA-A*23:01; [6]): ≥ 77800 nM
Kd (HLA-A*26:01; [6]): 360 nM
Kd (HLA-A*30:02; [6]): 142 nM
Kd (HLA-A*29:02; [6]): 47.3 nM

Sequence: AMVRMYIFF
Kd (HLA-A*24:02; [6]): 4460 nM
Kd (HLA-A*01:01; [6]): 18700 nM
Kd (HLA-A*23:01; [6]): 214 nM
Kd (HLA-A*26:01; [6]): 7440 nM
Kd (HLA-A*30:02; [6]): ≥ 71100 nM
Kd (HLA-A*29:02; [6]): 452 nM

Sequence: QFLLQLNET
IC50 (HLA-A*02:01 [1]; [5]): 16100 nM

Sequence: ITQFETYQL
Kd (HLA-A*32:01; [7]): 1630 nM

IC50 (HLA-A*02:01 [1]; source organism: Homo sapiens): ≥ 200000 nM
Sequence: RVRFFFPSL

Sequence: ATIQRFSSL
Kd (HLA-B*08:01; [8]): 3.34 nM

Sequence: SVYKHRLIV
Kd (HLA-B*08:01; [8]): 108 nM

Sequence: YCNYSKYWYL
Kd (HLA-A*24:02; [9]): 4440 nM
Kd (HLA-A*01:01; [9]): 9730 nM
Kd (HLA-A*23:01; [9]): 1150 nM
Kd (HLA-A*26:01; [9]): ≥ 69700 nM
Kd (HLA-A*30:02; [9]): ≥ 22700 nM
Kd (HLA-A*29:02; [9]): 10800 nM

Sequence: STFNRFTIV
Kd (HLA-B*08:01; [8]): 1730 nM

Sequence: RILFRKPSL
Kd (HLA-B*08:01; [8]): 32.2 nM

Sequence: KTIFLSEPY
Kd (HLA-A*32:01; [8]): 2.9 nM

Sequence: SNSNRLMSI
Kd (HLA-B*08:01; [8]): 10.1 nM

Sequence: ASFYYIWKSY
Kd (HLA-A*24:02; [6]): ≥ 28600 nM
Kd (HLA-A*01:01; [6]): 3110 nM
Kd (HLA-A*23:01; [6]): ≥ 32100 nM
Kd (HLA-A*26:01; [6]): 2100 nM
Kd (HLA-A*30:02; [6]): 0.481 nM
Kd (HLA-A*29:02; [6]): 71.4 nM

Sequence: AIIAIVFVF
Kd (HLA-A*32:01; [8]): 14100 nM

Sequence: ETRTETWMSS
Kd (HLA-A*32:01; [10]): 12800 nM
Kd (HLA-A*26:01; [10]): 693 nM

Sequence: STGNYNYKY
Kd (HLA-A*33:01): ≥ 77700 nM
Kd (HLA-A*24:02; [6]): ≥ 77600 nM
Kd (HLA-A*01:01; [6]): 388 nM
Kd (HLA-A*68:01): 1600 nM
Kd (HLA-A*31:01): ≥ 77900 nM
Kd (HLA-A*23:01; [6]): ≥ 77800 nM
Kd (HLA-A*26:01; [6]): 15600 nM
Kd (HLA-A*30:02; [6]): 24.5 nM
Kd (HLA-A*03:01): ≥ 20400 nM
Kd (HLA-A*29:02; [6]): 37.2 nM
Kd (HLA-A*11:01 [3]): 198 nM

Sequence: CWLVTNGSYL
Kd (HLA-A*24:02; [11]): 841 nM
Kd (HLA-A*23:01; [11]): 138 nM
Kd (HLA-A*29:02; [11]): 2890 nM

Sequence: RPTIEKDVDL
Kd (HLA-B*08:01; [7]): 846 nM

Sequence: LCEEGKVCY
Kd (HLA-A*24:02; [12]): ≥ 77500 nM
Kd (HLA-A*01:01; [12]): 7830 nM
Kd (HLA-A*23:01; [12]): ≥ 31600 nM
Kd (HLA-A*26:01; [12]): ≥ 77900 nM
Kd (HLA-A*30:02; [12]): 14200 nM
Kd (HLA-A*29:02; [12]): ≥ 45400 nM

Sequence: IMLVYCFLGY
Kd (HLA-A*24:02; [6]): ≥ 70300 nM
Kd (HLA-A*01:01; [6]): ≥ 31500 nM
Kd (HLA-A*23:01; [6]): ≥ 70000 nM
Kd (HLA-A*26:01; [6]): ≥ 42700 nM
Kd (HLA-A*30:02; [6]): 211 nM
Kd (HLA-A*29:02; [6]): 3.05 nM

Sequence: ITYEKSNNI
Kd (HLA-A*32:01; [8]): 17.5 nM

Sequence: LMINNMHSI
Kd (HLA-A*32:01; [8]): 13800 nM

Sequence: SLGGHTVWQ
Kd (HLA-A*69:01; [13]): ≥ 20000 nM
Kd (HLA-A*02:01 [4]; [13]): 8000 nM

Sequence: DLYDYITRI
Kd (HLA-A*69:01; [14]): 35.3 nM
Kd (HLA-A*02:01 [4]; [14]): 101 nM
